Assay results reported in patent publication US11142588B2, “Polypeptides which bind C-X-C chemokine receptor type 4 (CXCR4) and methods of treating or reducing the risk of fibrosis and cancer” (AdAlta Limited, priority 2015, dated 2021).

Target: T1, CCR4 (Homo sapiens, UniProt P51679)
T1 sequence (P51679 1-360): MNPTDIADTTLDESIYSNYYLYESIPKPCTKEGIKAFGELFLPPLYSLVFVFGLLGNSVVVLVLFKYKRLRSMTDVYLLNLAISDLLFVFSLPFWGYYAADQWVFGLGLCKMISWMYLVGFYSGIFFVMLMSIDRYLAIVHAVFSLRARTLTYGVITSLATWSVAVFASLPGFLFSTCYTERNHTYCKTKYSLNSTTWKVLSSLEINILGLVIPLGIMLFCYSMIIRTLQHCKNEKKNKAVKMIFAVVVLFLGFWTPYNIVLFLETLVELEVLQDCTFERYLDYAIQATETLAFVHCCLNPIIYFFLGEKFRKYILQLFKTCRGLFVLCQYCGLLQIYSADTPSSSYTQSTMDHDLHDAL
Experiment: PathHunter (DiscoverX) β-arrestin assay, CCR4
Format: cell-based
Procedure: (FIG. 9) The PathHunter® β-Arrestin assay (DiscoveRx) was performed according to the manufacturer's protocol. Cells were seeded into white walled, 384-well tissue culture-treated microplates (Corning) and normalized at 5,000 cells (or 10,000 cells for CXCR4) in a total volume of […]. Cell growth was at 37° C. (5% CO2, 95% relative humidity). […] Agonists were then added at the EC80 concentration and incubation was continued at 37° C. for 90 min (or 180 min for CCR1). Assay signal was generated through a single addition of 15 μL (50% v/v) of PathHunter Detection reagent cocktail, followed by 1 h incubation at room temperature. Microplates were read following signal generation with a PerkinElmer Envision instrument for chemiluminescent signal detection of relative light units (RLU).

CCR4 activity: −2%
B1: AM3-523: affinity matured CXCR4 i-body, SEQ ID NO: 56 (protein)
chain: LQVDIVPSQGEISVGESKFFLCQVAGSGSHMRISWFSPNGEKLTPNQQRISVVWNDDSSSTLTIYNANIDDAGIYKCVVWVGGYRHRALVLGEATVNVKIFQ
modifications: protein sequence encoding AM3-523
